Data as given in patent publication US20180036395A1, “DOSAGE AND ADMINISTRATION OF MONOSPECIFIC AND BISPECIFIC ANTI-IGR-1R AND ANTI-ERBB3 ANTIBODIES” (Merrimack Pharmaceuticals, Inc., priority 2012, published 2018).

Tests used:
Assay type in all cases: in vivo, human
[1] = tested on: non-small cell lung cancer (NSCLC); assay: Treatment of patients with non-small cell lung cancer; conditions: everolimus + P4-G1-M1.3
Description: P4-G1-M1.3 is formulated in 20 mM histidine, 100 mM arginine-HCl, 3% sucrose, at pH 5.5 supplemented with 0.002-0.02% of Tween® 80 at concentration range 5-15 mg/mL. P4-G1-M1.3 is administered to patients at 6 mg/kg, 12 mg/kg, 20 mg/kg, 30 mg/kg, 40 mg/kg, 50 mg/kg or 60 mg/kg q7d, ql4d, q21d, or q28d with a loading dose of 12 mg/kg, 20 mg/kg, 40 mg/kg, 40 mg/kg or 60 mg/kg Everolimus is administered to patients at 2.5 mg, 5 mg, or 10 mg orally once a day or once every other day.
Patients with non-small cell lung cancer (NSCLC) are treated by administration of either monotherapy with an effective amount of everolimus or an effective amount of P4-G1-M1.3, or with combination therapy comprising or consisting of administration of both the effective amount of everolimus and the effective amount of P4-G1-M1.3. P4-G1-M1.3 and everolimus are prepared and dosed as described in Example 1.

[2] = tested on: Caki-1 renal cell carcinoma cancer cells; assay: Caki-1 renal cell carcinoma xenograft study
Description: (§1) The y-axis represents mean tumor volume in mm^3 and the x-axis represents time in days.
For each of the xenograft studies below, cells are resuspended 1:1 with PBS:Growth factor-reduced Matrigel® and injected subcutaneously into Nu/Nu mice. Tumors are allowed to develop for 8 days. Antibodies are injected intraperitoneally every 3 days (q3d) at the indicated doses/mouse. Tumor lengths and widths are measured twice a week manually by caliper, and tumor volume calculated using the following formula: π/6(L×W^2). Each arm of a study contains 10 animals. All studies are carried out using methods approved by an internal IACUC panel. […]

[3] = tested on: DU145 prostate cancer cells; assay: DU145 prostate cancer xenograft study; conditions: combination of docetaxel (10mpk q7d) and P4-G1-M1.3 (30mpk, q3d); FIG. 4
Description: as §1
For each of the xenograft studies below, cells are resuspended 1:1 with PBS:Growth factor-reduced Matrigel® and injected subcutaneously into Nu/Nu mice. Tumors are allowed to develop for 8 days. Antibodies are injected intraperitoneally every 3 days (q3d) at the indicated doses/mouse. Tumor lengths and widths are measured twice a week manually by caliper, and tumor volume calculated using the following formula: π/6(L×W^2). Each arm of a study contains 10 animals. All studies are carried out using methods approved by an internal IACUC panel.
Statistical significance across groups was determined using the student's T-test (*,p<0.05 vs control.; #,p<0.05 vs docetaxel; a,p<0.05 vs P4-G1-M1.3).

B1: P4-G1-M1.3: anti-IGF-1R+anti-ErbB3 polyvalent bispecific antibody, IgG1-(scFv)2 (SEQ ID NO:148 and SEQ ID NO:149) (protein)
chain 1: EVQLLQSGGGLVQPGGSLRLSCAASGFLFSSYPMHWVRQAPGKGLEWVGSISPSGGATPYADSVKGRFTISRDNSKNTLYLQMNSLRPEDTAVYYCAKDFYNILTGNAFDKWGQGTSVTVSSASTGGGGSGGGGSGGGGSGGGGSDIQLTQSPSSLSASLGDRVTITCRASQGISSYLAWYQQKPGKAPKLLIYAGSTPQSGVPSRFSGSGSGTEFTLTISSLQPEDSGTYYCQQYWTWPLTFGGGTKVEIKRT
chain 2: EVQLVESGGGLVQPGRSLRLSCAASGFTFDDYAMHWVRQAPGKGLEWVSGISWNSGSTGYADSVKGRFTISRDNAKNSLYLQMNSLRAEDTALYYCARDLGYNQWLEGFDYWGQGTLVTVSSASTGGGGSGGGGSGGGGSGGGGSSSELTQDPAVSVALGQTVRITCQGDSLRSYYASWYQQKPGQAPVLVIYGKNNRPSGIPDRFSGSSSGNTASLTITGAQAEDEADYYCMSRDHPGNQWVFGGGTKVTVLG
modifications: Synthetic polypeptide:Anti-IGF-1R scFvs M76; Synthetic polypeptide:Anti-ErbB3 scFvs P6L
treatment outcome [1]: combinatorially enhanced outcome
response to everolimus (tumor growth) ([2]; Caki-1 xenograft in Nu/Nu mice, 3mpk everolimus+500 μg P4-G1-M1.3, FIG. 1): potentiates responses to everolimus
tumor growth (mean tumor volume) ([2]; Caki-1 xenograft in Nu/Nu mice, P4-G1-M1.3 at 500, 300, or 100 μg, FIG. 1): suppresses tumor growth
tumor growth ([2]; Caki-1 xenograft, Example 12): suppresses tumor growth
response to sirolimus ([2]; Caki-1 xenograft, combination with sirolimus): potentiates responses to sirolimus
growth of DU145 prostate cancer cells in vivo (mean tumor volume) [3]: inhibition of growth
